{"source": "paper PMC10397247", "binders": {"B1": {"name": "4H331-bA (peptide)", "chain": "DEIAQLEQKIAELKQEIAELKWENAQLEQ"}, "B2": {"name": "4H3189-bA (peptide)", "chain": "DKNAQLEQEIAELKQKNAELEWKIAQLEQ"}}, "test_in_all_cases": "two-hybrid library CCNG1;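 further: natural log of median RNA to DNA barcode read ratio; higher means stronger binding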", "key": {"4H953-bA": {"target": "T1, 4H953-bA", "T1 chain": "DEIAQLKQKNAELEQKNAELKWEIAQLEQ"}, "4H3354-bA": {"target": "T2, 4H3354-bA", "T2 chain": "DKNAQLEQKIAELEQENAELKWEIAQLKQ"}, "4H754-bA": {"target": "T3, 4H754-bA", "T3 chain": "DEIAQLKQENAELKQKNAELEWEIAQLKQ"}, "4H3843-bA": {"target": "T4, 4H3843-bA", "T4 chain": "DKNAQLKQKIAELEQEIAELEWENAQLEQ"}, "4H607-bA": {"target": "T5, 4H607-bA", "T5 chain": "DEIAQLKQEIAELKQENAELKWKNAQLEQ"}, "4H462-bA": {"target": "T6, 4H462-bA", "T6 chain": "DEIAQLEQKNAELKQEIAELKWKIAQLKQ"}, "4H331-bA": {"target": "T7, 4H331-bA", "T7 chain": "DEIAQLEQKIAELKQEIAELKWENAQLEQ"}, "4H3782-bA": {"target": "T8, 4H3782-bA", "T8 chain": "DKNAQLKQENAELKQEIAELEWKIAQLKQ"}, "4H797-bA": {"target": "T9, 4H797-bA", "T9 chain": "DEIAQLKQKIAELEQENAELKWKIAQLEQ"}, "4H883-bA": {"target": "T10, 4H883-bA", "T10 chain": "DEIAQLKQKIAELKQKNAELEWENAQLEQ"}, "4H3427-bA": {"target": "T11, 4H3427-bA", "T11 chain": "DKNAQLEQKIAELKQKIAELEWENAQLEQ"}, "4H454-bA": {"target": "T12, 4H454-bA", "T12 chain": "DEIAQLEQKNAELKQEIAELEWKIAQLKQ"}, "4H3855-bA": {"target": "T13, 4H3855-bA", "T13 chain": "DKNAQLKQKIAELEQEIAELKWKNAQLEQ"}, "4H918-bA": {"target": "T14, 4H918-bA", "T14 chain": "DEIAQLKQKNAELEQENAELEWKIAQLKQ"}, "4H72-bA": {"target": "T15, 4H72-bA", "T15 chain": "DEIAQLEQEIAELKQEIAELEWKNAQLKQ"}, "4H568-bA": {"target": "T16, 4H568-bA", "T16 chain": "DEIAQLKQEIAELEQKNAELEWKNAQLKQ"}, "4H967-bA": {"target": "T17, 4H967-bA", "T17 chain": "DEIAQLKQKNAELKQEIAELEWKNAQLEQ"}, "4H3606-bA": {"target": "T18, 4H3606-bA", "T18 chain": "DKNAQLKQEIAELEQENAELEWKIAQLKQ"}, "4H4001-bA": {"target": "T19, 4H4001-bA", "T19 chain": "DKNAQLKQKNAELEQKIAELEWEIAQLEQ"}, "4H338-bA": {"target": "T20, 4H338-bA", "T20 chain": "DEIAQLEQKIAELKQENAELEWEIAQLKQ"}, "4H717-bA": {"target": "T21, 4H717-bA", "T21 chain": "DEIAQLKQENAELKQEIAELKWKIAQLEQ"}, "4H908-bA": {"target": "T22, 4H908-bA", "T22 chain": "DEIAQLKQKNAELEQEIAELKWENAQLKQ"}, "4H370-bA": {"target": "T23, 4H370-bA", "T23 chain": "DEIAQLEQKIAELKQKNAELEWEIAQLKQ"}, "4H687-bA": {"target": "T24, 4H687-bA", "T24 chain": "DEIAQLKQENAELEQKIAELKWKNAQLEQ"}, "4H3189-bA": {"target": "T25, 4H3189-bA", "T25 chain": "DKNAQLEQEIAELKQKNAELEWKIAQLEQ"}}, "note": "Like-named read-outs stand apart in the source and are kept apart here."}
{"binder": "B1", "values": [{"measurement": "interaction score", "setting": "4H953-bA", "value": -1.28}, {"measurement": "interaction score", "setting": "4H3354-bA", "value": -0.749}, {"measurement": "interaction score", "setting": "4H754-bA", "value": -0.893}, {"measurement": "interaction score", "setting": "4H3843-bA", "value": 0.72}, {"measurement": "interaction score", "setting": "4H607-bA", "value": -1.42}, {"measurement": "interaction score", "setting": "4H462-bA; mean of both orientations", "value": -0.426}, {"measurement": "interaction score", "setting": "4H331-bA", "value": -0.244}, {"measurement": "interaction score", "setting": "4H3782-bA", "value": -0.0209}, {"measurement": "interaction score", "setting": "4H797-bA", "value": -0.644}, {"measurement": "interaction score", "setting": "4H883-bA", "value": -0.483}, {"measurement": "interaction score", "setting": "4H3427-bA", "value": 0.677}, {"measurement": "interaction score", "setting": "4H454-bA", "value": 0.885}, {"measurement": "interaction score", "setting": "4H3855-bA", "value": 0.317}, {"measurement": "interaction score", "setting": "4H918-bA", "value": -0.884}, {"measurement": "interaction score", "setting": "4H72-bA", "value": 1.23}, {"measurement": "interaction score", "setting": "4H568-bA", "value": -0.11}, {"measurement": "interaction score", "setting": "4H967-bA", "value": -1.16}, {"measurement": "interaction score", "setting": "4H3606-bA", "value": -0.929}, {"measurement": "interaction score", "setting": "4H4001-bA", "value": 0.0797}, {"measurement": "interaction score", "setting": "4H338-bA", "value": -0.867}, {"measurement": "interaction score", "setting": "4H717-bA", "value": -1.06}, {"measurement": "interaction score", "setting": "4H908-bA", "value": -1.83}, {"measurement": "interaction score", "setting": "4H370-bA", "value": -0.724}, {"measurement": "interaction score", "setting": "4H687-bA", "value": -0.899}]}
{"binder": "B2", "values": [{"measurement": "interaction score", "setting": "4H953-bA", "value": -1.34}, {"measurement": "interaction score", "setting": "4H3843-bA", "value": -1.24}, {"measurement": "interaction score", "setting": "4H607-bA", "value": -1.11}, {"measurement": "interaction score", "setting": "4H462-bA", "value": -1.62}, {"measurement": "interaction score", "setting": "4H331-bA", "value": -1.26}, {"measurement": "interaction score", "setting": "4H3782-bA", "value": -0.906}, {"measurement": "interaction score", "setting": "4H797-bA", "value": -1.42}, {"measurement": "interaction score", "setting": "4H3189-bA", "value": 0.465}, {"measurement": "interaction score", "setting": "4H883-bA", "value": -1.22}, {"measurement": "interaction score", "setting": "4H918-bA", "value": -1.44}, {"measurement": "interaction score", "setting": "4H72-bA", "value": -1.18}, {"measurement": "interaction score", "setting": "4H568-bA", "value": -1.19}, {"measurement": "interaction score", "setting": "4H967-bA", "value": -1.1}, {"measurement": "interaction score", "setting": "4H3606-bA", "value": -0.875}, {"measurement": "interaction score", "setting": "4H4001-bA", "value": -0.765}, {"measurement": "interaction score", "setting": "4H370-bA", "value": -0.547}, {"measurement": "interaction score", "setting": "4H687-bA", "value": -0.444}]}
